Assays:
[1] = molecular target: HLA-B*39:01; test: IEDB peptide-MHC binding, purified MHC/competitive/fluorescence; filed as Kd, often an IC50 or EC50 that approximates it; ≥ and ≤ were set here for values at or beyond the usual limits of such assays; settings: source organism: Influenza A virus (A/X-31(H3N2))
[2] = molecular target: HLA-B*18:01; test: as above
[3] = molecular target: HLA-A*02:06; test: as above; settings: source organism: Influenza A virus (A/X-31(H3N2))
[4] = molecular target: HLA-A*68:02; test: as above; settings: source organism: Influenza A virus (A/X-31(H3N2))
[5] = molecular target: HLA-A*01:01; test: IEDB peptide-MHC binding, purified MHC/direct/fluorescence; filed as Kd, often an IC50 or EC50 that approximates it; ≥ and ≤ were set here for values at or beyond the usual limits of such assays
[6] = molecular target: HLA-A*02:11; test: as above; settings: source organism: Influenza A virus (A/Taiwan/2/2006(H1N1))
[7] = molecular target: HLA-A*02:01; test: as above
[8] = molecular target: HLA-B*15:01; test: as above; settings: source organism: Influenza A virus (A/Hong Kong/213/2003(H5N1))
[9] = molecular target: HLA-B*15:17; test: as above; settings: source organism: Influenza A virus (A/Hong Kong/213/2003(H5N1))
[10] = molecular target: HLA-A*24:03; test: as above; settings: source organism: Influenza A virus (A/Hong Kong/213/2003(H5N1))
[11] = molecular target: HLA-A*02:19; test: as above; settings: source organism: Influenza A virus (A/Taiwan/2/2006(H1N1))
[12] = molecular target: HLA-A*24:02; test: as above; settings: source organism: Influenza A virus (A/Hong Kong/213/2003(H5N1))
[13] = molecular target: HLA-A*11:01; test: as above
[14] = molecular target: HLA-A*26:02; test: as above; settings: source organism: Influenza A virus (A/Taiwan/2/2006(H1N1))
[15] = molecular target: HLA-A*26:03; test: as above; settings: source organism: Influenza A virus (A/Taiwan/2/2006(H1N1))
[16] = molecular target: HLA-A*02:03; test: as above; settings: source organism: Influenza A virus (A/Taiwan/2/2006(H1N1))
[17] = molecular target: HLA-B*58:01; test: as above
[18] = molecular target: HLA-B*15:09; test: as above; settings: source organism: Influenza A virus (A/Taiwan/2/2006(H1N1))
[19] = molecular target: HLA-A*02:12; test: as above; settings: source organism: Influenza A virus (A/Taiwan/2/2006(H1N1))
[20] = molecular target: HLA-B*08:01; test: as above
[21] = molecular target: HLA-B*08:02; test: as above
[22] = molecular target: HLA-A*23:01; test: as above; settings: source organism: Influenza A virus (A/Hong Kong/213/2003(H5N1))
[23] = molecular target: HLA-A*31:01; test: as above
[24] = molecular target: HLA-B*27:05; test: as above
[25] = molecular target: HLA-B*07:02; test: as above
[26] = molecular target: HLA-A*03:01; test: as above
[27] = molecular target: HLA-B*57:01; test: as above
[28] = molecular target: HLA-B*15:01; test: IEDB peptide-MHC binding, purified MHC/competitive/fluorescence; filed as Kd, often an IC50 or EC50 that approximates it; ≥ and ≤ were set here for values at or beyond the usual limits of such assays; settings: source organism: Vibrio parahaemolyticus RIMD 2210633
[29] = molecular target: HLA-B*15:17; test: as above; settings: source organism: Vibrio parahaemolyticus RIMD 2210633
[30] = molecular target: HLA-B*35:01; test: as above; settings: source organism: Vibrio parahaemolyticus RIMD 2210633
[31] = molecular target: HLA-A*26:01; test: as above; settings: source organism: Vibrio parahaemolyticus RIMD 2210633
[32] = molecular target: HLA-A*26:02; test: as above; settings: source organism: Vibrio parahaemolyticus RIMD 2210633
[33] = molecular target: HLA-A*26:03; test: as above; settings: source organism: Vibrio parahaemolyticus RIMD 2210633
[34] = molecular target: HLA-B*08:03; test: IEDB peptide-MHC binding, purified MHC/direct/fluorescence; filed as Kd, often an IC50 or EC50 that approximates it; ≥ and ≤ were set here for values at or beyond the usual limits of such assays; settings: source organism: Vibrio parahaemolyticus RIMD 2210633
[35] = molecular target: HLA-B*40:01; test: as above; settings: source organism: Vibrio parahaemolyticus
[36] = molecular target: HLA-B*48:01; test: as above; settings: source organism: Vibrio parahaemolyticus
[37] = molecular target: HLA-A*68:02; test: as above; settings: source organism: Vibrio parahaemolyticus
[38] = source organism: Influenza A virus (A/Hong Kong/213/2003(H5N1))
[39] = source organism: Influenza A virus (A/Taiwan/2/2006(H1N1))
[40] = source organism: Vibrio parahaemolyticus RIMD 2210633
[41] = source organism: Vibrio parahaemolyticus

## CFMYSDFHF
[1]
  Kd: ≥ 20000 nM
[2]; source organism: Influenza A virus (A/X-31(H3N2))
  Kd: 1990 nM
[3]
  Kd: 49.2 nM
[4]
  Kd: 210 nM
[5]; [38]
  Kd: ≥ 20000 nM
[6]
  Kd: 126 nM
[7]; [38]
  Kd: 141 nM
[8]
  Kd: ≥ 20000 nM
[9]
  Kd: ≥ 20000 nM
[10]
  Kd: 7.5 nM
[11]
  Kd: 268 nM
[12]
  Kd: 21 nM
[13]; [38]
  Kd: ≥ 20000 nM
[14]
  Kd: ≥ 20000 nM
[15]
  Kd: ≥ 20000 nM
[16]
  Kd: 307 nM
[17]; [38]
  Kd: 74.5 nM
[18]
  Kd: ≥ 20000 nM
[19]
  Kd: 243 nM
[20]; [39]
  Kd: ≥ 20000 nM
[21]; [39]
  Kd: ≥ 20000 nM
[22]
  Kd: ≤ 1 nM
[23]; [38]
  Kd: ≥ 20000 nM
[24]; [38]
  Kd: ≥ 20000 nM
[25]; [38]
  Kd: ≥ 20000 nM
[26]; [38]
  Kd: ≥ 20000 nM
[27]; [38]
  Kd: ≥ 20000 nM

## ILRPLGIEY
[28]
  Kd: 282 nM
[29]
  Kd: 48.8 nM
[30]
  Kd: 226 nM
[31]
  Kd: 478 nM
[2]; [40]
  Kd: 159 nM
[32]
  Kd: 403 nM
[33]
  Kd: ≥ 20000 nM
[5]; [41]
  Kd: 2020 nM
[7]; [41]
  Kd: ≥ 20000 nM
[34]
  Kd: ≥ 20000 nM
[13]; [41]
  Kd: ≥ 20000 nM
[35]
  Kd: ≥ 20000 nM
[17]; [41]
  Kd: ≥ 20000 nM
[20]; [40]
  Kd: ≥ 20000 nM
[21]; [40]
  Kd: ≥ 20000 nM
[23]; [41]
  Kd: ≥ 20000 nM
[36]
  Kd: ≥ 20000 nM
[24]; [41]
  Kd: ≥ 20000 nM
[25]; [41]
  Kd: ≥ 20000 nM
[26]; [41]
  Kd: 116 nM
[27]; [41]
  Kd: 1530 nM
[37]
  Kd: ≥ 20000 nM

— the Immune Epitope Database (IEDB)
